Test: soluble on expression in E. coli; label from the status in PepcDB or PDB records

Sequence | soluble on expression in E. coli
MTTLKLDTLSDRIKAHKNALVHIVKPPVCTERAQHYTEMYQQHLDKPIPVRRALALAHHLANRTIWIKHDELIIGNQASEVRAAPIFPEYTVSWIEKEIDDLADRPGAGFAVSEENKRVLHEVCPWWRGQTVQDRCYGMFTDEQKGLLATGIIKAEGNMTSGDAHLAVNFPLLLEKGLDGLREEVAERRSRINLTVLEDLHGEQFLKAIDIVLVAVSEHIERFAALAREMAATETRESRRDELLAMAENCDLIAHQPPQTFWQALQLCYFIQLILQIESNGHSVSFGRMDQYLYPYYRRDVELNQTLDREHAIEMLHSCWLKLLEVNKIRSGSHSKASAGSPLYQNVTIGGQNLVDGQPMDAVNPLSYAILESCGRLRSTQPNLSVRYHAGMSNDFLDACVQVIRCGFGMPAFNNDEIVIPEFIKLGIEPQDAYDYAAIGCIETAVGGKWGYRCTGMSFINFARVMLAALEGGHDATSGKVFLPQEKALSAGNFNNFDEVMDAWDTQIRYYTRKSIEIEYVVDTMLEENVHDILCSALVDDCIERAKSIKQGGAKYDWVSGLQVGIANLGNSLAAVKKLVFEQGAIGQQQLAAALADDFDGLTHEQLRQRLINGAPKYGNDDDTVDTLLARAYQTYIDELKQYHNPRYGRGPVGGNYYAGTSSISANVPFGAQTMATPDGRKAHTPLAEGASPASGTDHLGPTAVIGSVGKLPTAAILGGVLLNQKLNPATLENESDKQKLMILLRTFFEVHKGWHIQYNIVSRETLLDAKKHPDQYRDLVVRVAGYSAFFTALSPDAQDDIIARTEHML | soluble
MSLGKEAEMNYPTDEKNFFQILEEQLSYFKINKKIKEICIFIINNLDKKGYLELSKIEIKDILEVSNKELEEAFDIIHNLEPYGIGAYSLEECLKIQLKAKKIIEEKLSLFIDNYLYLLADKKYDLIKEKLNINDNILFSYIDIIKSLNPIPSRGYSVGKVRKIIPDVLVEIKKNEIFYEINRASIPQINVKDKIEDKYYKKINEIISCIEKRFETIDKIMKIIIREQKIFFTSQGKKINTLKISDIADKLNLSPSTVSRAVKEKYIKTNFGIISLRKLFNLDSAVFLYQQKILEYIENENKENPISDQDIVNLLEKDGIKIARRTVTKYREKLGYKSSHKRKKYEGHHHHHH | not soluble
MGSDKIHHHHHHMILGEIMEVLAFKNQSLIDHVNDMVKYWERIKYRYLKTIKRALEALNIKLDIEKVDEFMKILIKLHDIGKASKIYQRAIINDQEKLMGFRHELVSAYYTYHILLKKFGDKNLAFIGALTVMLHHEPIIMGQIRNLKKKELTAEVVLDKLKKFDGMIEDFEDLIKKLIGYSIGDIIKNDSNKDDIIRFVIEMSVRARHTPNSEKLRFIVGTLLLPLVMCDYKGAESREGKAPKFAEVLEVESYVI | not soluble
MGSDKIHHHHHHMSVHSEVLHALLKDPFIQKLIDAEPVFWANSGKKEGPLPRADEWATEIAEAEKRMQRFAPYIAEVFPETKGAKGIIESPLFEVQHMKGKLEAAYQQPFPGRWLLKCDHELPISGSIKARGGIYEVLKYAENLALQEGMLQETDDYRILQEERFTGFFSRYSIAVGSTGNLGLSIGIIGAALGFRVTVHMSADAKQWKKDLLRQKGVTVMEYETDYSEAVNEGRRQAEQDPFCYFIDDEHSRQLFLGYAVAASRLKTQLDCMNIKPSLETPLFVYLPCGVGGGPGGVAFGLKLLYGDDVHVFFAEPTHSPCMLLGLYSGLHEKISVQDIGLDNQTAADGLAVGRPSGFVGKLIEPLLSGCYTVEDNTLYTLLHMLAVSEDKYLEPSALAGMFGPVQLFSTEEGRRYAQKYKMEHAVHVVWGTGGSMVPKDEMAAYNRIGADLLKKRNGK | not soluble
MGSDKIHHHHHHMKKHAYLIIAHDNWKILEKLLILLDDKRNDIYLHIDRKSNLINFSNNVHNANLFVFHEIDVRWGDISLIQVEFFLFKTAYCKGNYSYYHLISGSDLPLKTQDEIHAFFDAHYPTEFIGFSLEMTCDDRVNRAYIFPKYQRIKNRYGNKLLGSLRSFCAFLQKILNYNHYKLKDKLMIGPEWVSITEQSVSLILSKEKVIMKQYRFASCGDEVYKQTIIGNSFLFNYVYDKNDDYKGCMRYIDWTRGNPYIFRSADFEQLMSSDRMFARKFDEKVDFDIVERIFEVLNGQTSDSKMKYYF | not soluble
MNAWEVNFDGLVGLTHHYAGLSFGNEASTRHRFQVSNPRLAAKQGLLKMKALADAGFPQAVIPPHERPFIPVLRQLGFSGSDEQVLEKVARQAPHWLSSVSSASPMWVANAATIAPSADTLDGKVHLTVANLNNKFHRSLEAPVTESLLKAIFNDEEKFSVHSALPQVALLGDEGAANHNRLGGHYGEPGMQLFVYGREEGNDTRPSRYPARQTREASEAVARLNQVNPQQVIFAQQNPDVIDQGVFHNDVIAVSNRQVLFCHQQAFARQSQLLANLRARVNGFMAIEVPATQVSVSDTVSTYLFNSQLLSRDDGSMMLVLPQECREHAGVWGYLNELLAADNPISELKVFDLRESMANGGGPACLRLRVVLTEEERRAVNPAVMMNDTLFNALNDWVDRYYRDRLTAADLADPQLLREGREALDVLSQLLNLGSVYPFQREGGGNG | soluble
MGSDKIHHHHHHGCSFLIKEVNVKQENEAGEMVAYIKAGEIATFTFSGEINIDGDASNETFIVGFLAPRSWNVRQNATVTYREDRYETEVDHKMTVIPDTEQPANYKGMSWSAALKKKYGVRGNVLNDMEWIAFKSDNYPSVNGTIHYTVTIKCNSGKSNLKFRPSFFINHSSDGIGGDEAHYSVKDADDCFEVVEGSGTVIDFCSTHYYQIEPLSALQDDYVTFTFQGDINTNELIKAENVYIEATAYTIEGKIYTVNEKSAKTLMKRETKLPRYNVTLWPGGFFNIPDGETISRIEYIFTNEDGTVSISQSDDSRDNEGEEVEEGIKEPFVFEFQCE | not soluble
MDVNVNIDTNAEKQAISPYIYGTNQDFSNAKVTARRIGGNRSTGYNWENNDSNAGTDWKNESDNYWLTLYDVPKEKYNEPASVYTAFHDKSLAMGVPYSLVTLQAGGYVAADQSGPLANTDVAPSSKWKKVEFNKNGPLSLTPDTTDGSVYMDEFVNYLVNKYGSASGSKGIKGYSLDNEPSLWPSTHPLIHPDKTKCSEVLDKDTQLAQVVKKIDPAAETFGPALFGFSAFNDFNSSPDWSSVKGNYQWFIDYYLDNMKKNSDAAGKRLLDALDLHWYPEAKGGGQRVTTSDTSNVDCNKARMQAPRSLWDSTYTEDSWIGQWCKWGLPLIPKVKSSIDKYYPGTKLSFSEYNYGGEDHISGGIAQADALGVFGKYGVYFATYWECNSDKNNYVQSAFNLYNNYDGNNSKYGDTDVKCDTSDINNSSTYASVTSNDGNKMDIIVMNKNYTDSINFNFNVSSNKNYTSGQVWGFDSNSSNITKRDDVSSISGNKFTYKIPALTAVHIVLLEHHHHHH | soluble
AHHHHHHGSKAMEFVGYKKSGKTTCVENVAKVLKKEKGYRVAIAKSMHSNFDKEETDTWKFSRIADYVIVHAQDIDGLLFKAKDVNALFSMVSADILLIEGFKSITHVPKVICAKSEEEVRELNNGLAIAVSGVIANKGIKEIDGLPVINATKEPEKLAELVEKKGFMLPNIDCGLCGYNCAEMAKLIVKGEKTVKDCVVLSSTPKVTIKIDGQVLPLKDWVQELVEKTIKGMLSAMKGYREGRKIEIVIKE | soluble
MCLNRVNEWVLEFNSRTKKLLIDLNKRLPGAKFSFADTYPAVLDLINNPTHYGFKIANTSCCNVDTSVGGLCLPNSKMCKNRQDFVFWDAFHPSDSANQILADHLFSSLLSSSSPSPAPKPRQ | not soluble
MGSDKIHHHHHHMETQNKPTVTDIDRPILVPPGGHKKVLLHSCCAPCSGEVMEAMLASGIDYTIYFYNPNIHPHKEYMLRKEENVRFAEKFGIPFIDKDDDYENDRKEWFAKAKGMEFEPERGIRCTMCFDMRFEKAAQYAHEHGFPVFTSSLGISRWKNMNQINDCGRRAAAPYDDVVYWDFNWRKGGGSARMIEISKRENFYQQEYCGCAYSLRDSNAHRKSQGRIPIKLGVLYYGDESTQYEPAPIRVDK | not soluble
AQIDLNITCRFAGVFHVEKNGRYSISRTEAADLCKAFNSTLPTMAQMEKALSIGFETCRYGFIEGHVVIPRIHPNSICAANNTGVYILTSNTSQYDTYCFNASAPPEEDCTSVTDLPNAFDGPITITIVNRDGTRYVQKGEYRTNPEDIYPSNPTDDDV | soluble
AHHHHHHGSLKLSDFIPLTMLREGETGVVVDIQSGVNARGKLLSMGITPGVRVRMIKSRKPGPVIIGIGSSKIALGWGIASKIIVRRE | not soluble
MGSDKIHHHHHHMAVRKAMKYSLGPVLWYWPKETLEEFYQQAATSSADVIYLGEAVCSKRRATKVGDWLEMAKSLAGSGKQIVLSTLALVQASSELGELKRYVENGEFLIEASDLGVVNMCAERKLPFVAGHALNCYNAVTLKILLKQGMMRWCMPVELSRDWLVNLLNQCDELGIRNQFEVEVLSYGHLPLAYSARCFTARSEDRPKDECETCCIKYPNGRNVLSQENQQVFVLNGIQTMSGYVYNLGNELASMQGLVDVVRLSPQGTDTFAMLDAFRANENGAAPLPLTANSDCNGYWRRLAGLELQA | not soluble
MGSDKIHHHHHHMQEIELKFLVPEPRLKGLMRQAKIKSSQVTQLAAHYYDTPDQQLAQAGIGLRIRQEGNAWVQTIKASGDGIAARLEHNLTLDNEQVQAMLDNNELLPDLTIYKDTPIAPALADFKLKKLAKQLTRLYVTDVERTTRLLIKDTGDEVVNSIEMAYDYGEIIHGTDDTQRDVIQEIEFELISGELDFLFSTAKTWCQRYKLCLSTVTKAERGGRLIKGQSHTPATAADLSELNIDKKIGMPAFLRAVVHNCLLQILPNSSAIVAGSKDNEHLLQLSIGIERLHTVLQAFDSFSDEINPDWSAILQQTATLLTEYRKLAYLSTHIEPRLQKDGAPIVDWTADIDALKITPIAAISTNHFQIMLLELIAFTMSDPSLEPQTDKLAINKLEKILVKYHEKLLKAEQYLEDRYDESDSELENESIIKALHNLHDHLKDLRYISELVAPLYGKKKTKRWLKRTVKAQKTLGQQLNMSDYQQYYQSKASSDFAALYAAGWLNAVLIPMEKATEKRLDKFYACSVFW | not soluble
GSPELGFSISGGVGGRGNPFRPDDDGIFVTRVQPEGPASKLLQPGDKIIQANGYSFINIEHGQAVSLLKTFQNTVELIIVREVGNGAKQEIRVRVEKDGGSGGVSSVPTNLEVVAATPTSLLISWDAYRELPVSYYRITYGETGGNSPVQEFTVPGSKSTATISGLKPGVDYTITVYAHYNYHYYSSPISINYRT | soluble
MSLKVATFIEPGKMVITDTPKPVIEQETDAVIKIVRACVCGSDLWWYRGISKRESGSFAGHEAIGIVEEVGTKVTDVSKGDFVIVPFTHGCGQCPSCKAGFDGNCTNHQAAKNVGYQGQYLRYTNANWALVKIPGQPSDYDNETLNSLLTLSDVMATGYHAAATAEVKEGDTVVVMGDGAVGLCGVIAAKMLGANRIIAMSRHKDRQELALTFGATDIVEERGDEAVKRVLDLTNQAGADAVLECVGTEQSVDTATQIARPGAVIGRVGIPQNPDMNTNNLFWKNIGLRGGIASVTTFDKSVLLDAVLTHKINPGLVFTKSFVLDDIQKAYEAMDKRDAIKSLVIVDEGHHHHHH | soluble
MQTETIHNIPYVNSNLTSFIDYLEKHYIDQKIGAVISTVNPEIAFAAIKDRDYFDVLSSSNFILPDGIGVVMMSRLTNNRLQSRIAGYDVFKELLGVANKKKKRIFLYGAKKDVIKGVVSKISSEYPNIKIAGYSDGYVQDRTLVAKQIARANPDMVFVALGYPHQEKFIHNYRHLFPKAVSIGLGGSFDVFSGNVKRAPSWMIRLNLEWFYRLILNPWRWKRMLSIPKYALTVLKEEKNKKTFYPKPEKDHTKQI | not soluble
MISKYLVRDVMKKGVVEVTLDTKLSDVIKTMAKYDISSVVVSDGETFWGIITDTDVLKHYNDLDKTAEEIMTTNPITVSPEAPLEKAVEIMAEKGIHHLYVKSPCEDKIVGVLSSKDIIKLFSDLIE | soluble

Source: the DeepSol protein solubility set
